What was measured:
[1] = target: T1, Drosophila Ash1_(XL-SET) (Ash1_(1275-1522)) (Drosophila, UniProt Q9VW15 1275-1522); test: cell-based or functional assay
T1 sequence (looked up): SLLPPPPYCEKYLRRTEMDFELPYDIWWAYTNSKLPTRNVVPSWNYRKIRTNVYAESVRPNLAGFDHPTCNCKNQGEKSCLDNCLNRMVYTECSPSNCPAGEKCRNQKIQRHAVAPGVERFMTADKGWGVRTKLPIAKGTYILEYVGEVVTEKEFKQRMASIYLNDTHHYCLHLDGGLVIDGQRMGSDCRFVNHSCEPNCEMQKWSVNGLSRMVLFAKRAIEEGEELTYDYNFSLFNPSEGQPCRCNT

[2] = target: human ASH1L_(XL-SET) (ASH1L_(2035-2288)) (human, UniProt Q9NR48 2035-2288); test: cell-based or functional assay

B1: Drosophila full-length MRG15 (E. coli) (natural protein, UniProt Q9Y0I1 1-424, looked up)
chain: MGEVKPAKVENYSTGTDANTLFVDGERVLCFHGPLIYEAKVLKTKPDATPVEYYIHYAGWSKNWDEWVPENRVLKYNDDNVKRRQELARQCGERSKKDNKKGSAKAKKMEQMRNESRASTPSKDSNTSQSTASSTPTTSAGPGSKSEAGSTGTTTTNSTANSTTSRAHRKSTQSTPSTARPGTPSDKKEDPAAAETTEEEGPVAPKKKRMSEQRPSLTGSDVAEKPLPPTTTPSTPTTEPAPCVESEEAYAAKVEVKIKIPDELKHYLTDDWYAVVREHKLLELPAKVTVQQISEQYLAHKKSVKSTSASKEVAINDVLDGIVEYFNVMLGSQLLYKFERTQYADVMQKHPDTPLSELYGSFHLLRLFVRLGSMLSYSALDQQSMQNLLTHVQDFLKFLVKNSSIFFSMSNFINVDPEYVRNAQ
[1]
  HMTase activity on recombinant oligonucleosome arrays (methyl-3H incorporation into histone H3, fluorography): Ash1_(XL-SET):MRG15 complex compared with Ash1_(XL-SET) alone: ~30 fold

B2: MRG domain of human MRG15 (MRG15_(151-362), MRG15MRG) (domain or fragment)
chain: KNKQKTPGNGDGGSTSETPQPPRKKRARVDPTVENEETFMNRVEVKVKIPEELKPWLVDDWDLITRQKQLFYLPAKKNVDSILEDYANYKKSRGNTDNKEYAVNEVVAGIKEYFNVMLGTQLLYKFERPQYAEILADHPDAPMSQVYGAPHLLRLFVRIGAMLAYTPLDEKSLALLLNYLHDFLKYLAKNSATLFSASDYEVAPPEYHRKAV
[2]
  HMTase activity on recombinant oligonucleosome arrays (methyl-3H incorporation into histone H3, fluorography): ASH1L_(XL-SET):MRG15MRG complex compared with ASH1L_(XL-SET) alone: ~7 fold

Reference: article PMC5963871, “Regulation and function of H3K36 di-methylation by the trithorax-group protein complex AMC” (Development (Cambridge, England), 2018)
